Results from doi:10.1101/2020.07.08.194076v1.

Tests used:
purified protein [1] = substrate: C=C(C)CCO[P@@](=O)(O)OP(=O)(O)O; experiment: purified protein; conditions: co-substrate 100 µM DMAPP
purified protein [2] = substrate: CC(C)=CCOP(=O)(O)OP(=O)(O)O; experiment: purified protein; conditions: co-substrate 100 µM IPP

Protein	Km (purified protein [1])	Km (purified protein [2])
SlG1 (Solanum lycopersicum) (protein) VSSKAEKFILPEFEFQEYMVTKAIKVNKALDEAIPMQEPIKVHEAMRYSLLAGGKRVRPILCMASCEVVGGDESLAIPAACAVEMIHTMSLVHDDLPCMDNDDLRRGKPTNHKIFGENTAVLAGDALLSLAFEHVATKTQNVPPQRVVQAIGELGSAVGSEGLVAGQIVDLASEGKQVSLTELEYIHHHKTSKLLEAAVVCGAIMGGGNEVDVERMRSYARCIGLLFQVVDDILDVTKSSDELGKTAGKDLITDKATYPKLMGLEKARQYAGELMAKAMNELSYFDYAKAAPLYHIASYIANRQN	74.18 ± 7.55 µM	31.82 ± 2.92 µM
SlG2 (Solanum lycopersicum) (protein) IATNEKVVMEKEEFNFKVYVAEKAICVNKALDEAIMVKDPPKIHEAMRYSLLAGGKRVRPMLCLAACELVGGNQGNAMAAACAVEMIHTMSLIHDDLPCMDDDDLRRGKPTNHKVYGEDVAVLAGDALLAFAFEYLATATTGVPPSRILVAVAELAKSVGTEGLVAGQVADLACTGNPNVGLEMLEFIHIHKTAALLEASVVIGAILGGGADEEVDKLRRFAQCIGLLFQVVDDILDVTKSSSELGKTAGKDLAVDKTTYPKLLGLEKAKEFAAELNGEAKQQLAAFDSHKAAPLIALADYIANRQN	79.75 ± 8.33 µM	49.55 ± 5.31 µM
AtG11 (Arabidopsis thaliana) (protein) SSIVSSSVVTKEDNLRQSEPSSFDFMSYIITKAELVNKALDSAVPLREPLKIHEAMRYSLLAGGKRVRPVLCIAACELVGGEESTAMPAACAVEMIHTMSLIHDDLPCMDNDDLRRGKPTNHKVFGEDVAVLAGDALLSFAFEHLASATSSDVVSPVRVVRAVGELAKAIGTEGLVAGQVVDISSEGLDLNDVGLEHLEFIHLHKTAALLEASAVLGAIVGGGSDDEIERLRKFARCIGLLFQVVDDILDVTKSSKELGKTAGKDLIADKLTYPKIMGLEKSREFAEKLNREARDQLLGFDSDKVAPLLALANYIAYRQN	38.49 ± 4.94 µM	32.86 ± 4.86 µM
